Key:
[1] = target: T1, IL-2Rβ (UniProt P14784 27-240, limits assumed, biotinylated (site not stated)); assay: SPR Biacore T100, steady-state; biotinylated IL-2Rβ on chip
T1 construct: also called CD122; IL-2Rbeta
T1 sequence (looked up): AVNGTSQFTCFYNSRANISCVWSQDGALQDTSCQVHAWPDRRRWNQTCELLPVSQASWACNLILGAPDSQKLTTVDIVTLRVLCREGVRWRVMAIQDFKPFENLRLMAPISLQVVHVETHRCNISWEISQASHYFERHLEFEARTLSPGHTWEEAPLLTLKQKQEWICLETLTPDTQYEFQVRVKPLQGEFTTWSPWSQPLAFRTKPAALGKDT
Experimental: (§1) To perform the surface plasmon resonance (SPR) analysis, the test variant protein was made in Expi293 as described previously. […] Experiments were performed on a BlAcore® T100 (GE Healthcare, Piscataway, N.J.).

[2] = target: T1, IL-2Rβ; assay: SPR Biacore T100, kinetic fit; biotinylated IL-2Rβ on chip
Experimental: as §1

Binder	Kd [1]	Kd [2]	koff [2]
in silico designed IL-2 variant SEQ ID NO: 4, MSA fusion protein (ligand, not shown: large carriers; small tags and cut ends) APTSSSTKKTQLQLEHLLLDLQMILNMLNNYDNPKLTRLLTFKFYMPKKATSLKHLQCLEEELKPLEEALNQAGDDPKTIRDLISNINVIVLELKGSETTFMCEYADETATIIEFLNRWITFCQSIISTLT	389 nM	339 nM	0.05 s⁻¹
in silico designed IL-2 variant SEQ ID NO: 1, MSA fusion protein (ligand, not shown: large carriers; small tags and cut ends) APTSSSTKKTQLQLEHLLLDLQMILNMLNNYDNPKLTRLLTFKFYMPKKATSLKHLQCLEEELKPLEEALNAAGDDPKTIRDVVSNINVFVLELKGSETTFMCEYADETATIIEFLNRWITFCQSIISTLT	61.3 nM	25 nM	0.0066 s⁻¹
in silico designed IL-2 variant SEQ ID NO: 3, MSA fusion protein (ligand, not shown: large carriers; small tags and cut ends) APTSSSTKKTQLQLEHLLLDLQMILNMLNNYDNPKLTRLLTFKFYMPKKATSLKHLQCLEEELKPLEEALNAAGDDPKTIRDLISNINVIVLELKGSETTFMCEYADETATIIEFLNRWITFCQSIISTLT	366 nM	282 nM	0.042 s⁻¹
in silico designed IL-2 variant SEQ ID NO: 11, MSA fusion protein (ligand, not shown: large carriers; small tags and cut ends) APTSSSTKKTQLQLEHLLLDLQMILNMLNNYSNPKLTRLLTFKFYMPKKATSLKHLQCLEEELKPLEEALNLASDDQDKVRDVVSNINVFVLELKGSETTFMCEYADETATIIEFLNRWITFCQSIISTLT	22.7 nM	8.7 nM	0.0036 s⁻¹
in silico designed IL-2 variant SEQ ID NO: 9, MSA fusion protein (ligand, not shown: large carriers; small tags and cut ends) APTSSSTKKTQLQLEHLLLDLQMILNMLNNYDNPKLTRLLTFKFYMPKKATSLKHLQCLEEELKPLEEALNQADSTDSRIRDLISNINVIVLELKGSETTFMCEYADETATIIEFLNRWITFCQSIISTLT	378 nM	330 nM	0.12 s⁻¹
in silico designed IL-2 variant SEQ ID NO: 10, MSA fusion protein (ligand, not shown: mouse serum albumin (MSA), fusion partner) APTSSSTKKTQLQLEHLLLDLQMILNMLNNYDNPKLTRLLTFKFYMPKKATSLKHLQCLEEELKPLEEALNQASKDQKKVRDVVSNINVFVLELKGSETTFMCEYADETATIIEFLNRWITFCQSIISTLT	137 nM	105 nM	0.015 s⁻¹
in silico designed IL-2 variant SEQ ID NO: 2, MSA fusion protein (ligand, not shown: large carriers; small tags and cut ends) APTSSSTKKTQLQLEHLLLDLQMILNMLNNYDNPKLTRLLTFKFYMPKKATELKHLQCLEEELKPLEEALNAAGDDPKTIRDLISNINVIVLELKGSETTFMCEYADETATIIEFLNRWITFCQSIISTLT	411 nM	332 nM	0.055 s⁻¹
in silico designed IL-2 variant SEQ ID NO: 13, MSA fusion protein (ligand, not shown: large carriers; small tags and cut ends) APTSSSTKKTQLQLEHLLLDLQMILNMLNNASNPSLTRMLTFKFYMPKKATELKHLQCLEEELKPLEEALNTAADDQDKIRDLISNINVIVLELKGSETTFMCEYADETATIIEFLNRWITFCQSIISTLT	207 nM	174 nM	0.036 s⁻¹
in silico designed IL-2 variant SEQ ID NO: 7, MSA fusion protein (ligand, not shown: large carriers; small tags and cut ends) APTSSSTKKTQLQLEHLLLDLQMILNMLNNYDNPKLTRMLTFKFYMPKKATELKHLQCLEEELKPLEEALNQADSTDETVRDLISNINVIVLELKGSETTFMCEYADETATIIEFLNRWITFCQSIISTLT	85.4 nM	56.7 nM	0.0026 s⁻¹
in silico designed IL-2 variant SEQ ID NO: 6, MSA fusion protein (ligand, not shown: large carriers; small tags and cut ends) APTSSSTKKTQLQLEHLLLDLQMILNMLNNYENPKLTRMLTFKFYMPKKATSLKHLQCLEEELKPLEEALNQAGDDPKTIRDLISNINVIVLELKGSETTFMCEYADETATIIEFLNRWITFCQSIISTLT	398 nM	315 nM	0.046 s⁻¹
in silico designed IL-2 variant SEQ ID NO: 12, MSA fusion protein (ligand, not shown: large carriers; small tags and cut ends) APTSSSTKKTQLQLEHLLLDLQMILNMLNNYDNPKLTRMLTFKFYMPKKATELKHLQCLEEELKPLEEALNHAADDKDTIRDLISNINVIVLELKGSETTFMCEYADETATIIEFLNRWITFCQSIISTLT	67.6 nM	51.2 nM	0.023 s⁻¹
in silico designed IL-2 variant SEQ ID NO: 8, MSA fusion protein (ligand, not shown: large carriers; small tags and cut ends) APTSSSTKKTQLQLEHLLLDLQMILNMLNNYDNPKLTRLLTFKFYMPKKATSLKHLQCLEEELKPLEEALNAADSTDERIRDVVSNINVFVLELKGSETTFMCEYADETATIIEFLNRWITFCQSIISTLT	14.2 nM	5.9 nM	0.0044 s⁻¹
in silico designed IL-2 variant SEQ ID NO: 5, MSA fusion protein (ligand, not shown: large carriers; small tags and cut ends) APTSSSTKKTQLQLEHLLLDLQMILNMLNNYDNPKLTRLLTFKFYMPKKATSLKHLQCLEEELKPLEEALNDAGDDPKTIRDLISNINVIVLELKGSETTFMCEYADETATIIEFLNRWITFCQSIISTLT	362 nM	292 nM	0.047 s⁻¹
Super-2 (H9) IL-2 variant, expressed as MSA fusion protein (ligand, not shown: large carriers; small tags and cut ends, also called H9 super-2; MSA-H9-super-2) APTSSSTKKTQLQLEHLLLDLQMILNGINNYKNPKLTRMLTFKFYMPKKATELKHLQCLEEELKPLEEVLNLAQSKNFHFDPRDVVSNINVFVLELKGSETTFMCEYADETATIVEFLNRWITFCQSIISTLT	16.2 nM	2.1 nM	0.0015 s⁻¹
in silico designed IL-2 variant SEQ ID NO: 14, MSA fusion protein (ligand, not shown: large carriers; small tags and cut ends) APTSSSTKKTQLQLEHLLLDLQMILNMLNNYDNPKLTRMLTFKFYMPKKATELKHLQCLEEELKPLEEALNLAQSKNFHLDPRDLISNINVIVLELKGSETTFMCEYADETATIIEFLNRWITFCQSIISTLT	196 nM	171 nM	0.072 s⁻¹
in silico designed IL-2 variant SEQ ID NO: 17, MSA fusion protein (ligand, not shown: large carriers; small tags and cut ends) APTSSSTKKTQLQLEHLLLDLQMILNMLNNYDNPKLTRLLTFKFYMPKKATSLKHLQCLEEELKPLEEALNLAQSKNFHLDPRDLISNINVIVLELKGSETTFMCEYADETATIIEFLNRWITFCQSIISTLT	268 nM	241 nM	0.091 s⁻¹
in silico designed IL-2 variant SEQ ID NO: 15, MSA fusion protein (ligand, not shown: large carriers; small tags and cut ends) APTSSSTKKTQLQLEHLLLDLQMILNMLNNYDNPKLTRMLTFKFYMPKKATELKHLQCLEEELKPLEEALNQAQSKNFHLDPRDLISNINVIVLELKGSETTFMCEYADETATIIEFLNRWITFCQSIISTLT	498 nM	227 nM	0.064 s⁻¹
in silico designed IL-2 variant SEQ ID NO: 16, MSA fusion protein (ligand, not shown: large carriers; small tags and cut ends) APTSSSTKKTQLQLEHLLLDLQMILNMLNNYDNPKLTRLLTFKFYMPKKATSLKHLQCLEEELKPLEEALNQAQSKNFHLDPRDLISNINVIVLELKGSETTFMCEYADETATIIEFLNRWITFCQSIISTLT	290 nM	221 nM	0.071 s⁻¹
